Test results from article PMC9249759, “Analysis of diverse double-strand break synapsis with Polλ reveals basis for unique substrate specificity in nonhomologous end-joining”.

Legend:
[1] = target: T1, DNA polymerase lambda catalytic domain with brooch motif (Homo sapiens, UniProt Q9UGP5 235-575); experiment: X-ray crystallography, 1.57 A; dUMPNPP, Mg2+; Crystals only: DNA with protein on ice or RT, then 0.91 mM dUMPNPP; SSB cacodylate pH 6.5/KCl/Mg acetate/PEG 8000 RT; DSB.A tripotassium citrate/PEG 3350 4 C; DSB.B Na sulfate/PEG 3350 RT; DSB.C cacodylate pH 6.5/ammonium sulfate/PEG 8K 4 C; DSB.D cacodylate pH 6.5/Ca acetate/PEG 8K 4 C, soaked in Mg acetate; settings: protein: recombinant; tags: GST tag removed by TEV; 1-nt gap; template with upstream primer and downstream primer
T1 sequence: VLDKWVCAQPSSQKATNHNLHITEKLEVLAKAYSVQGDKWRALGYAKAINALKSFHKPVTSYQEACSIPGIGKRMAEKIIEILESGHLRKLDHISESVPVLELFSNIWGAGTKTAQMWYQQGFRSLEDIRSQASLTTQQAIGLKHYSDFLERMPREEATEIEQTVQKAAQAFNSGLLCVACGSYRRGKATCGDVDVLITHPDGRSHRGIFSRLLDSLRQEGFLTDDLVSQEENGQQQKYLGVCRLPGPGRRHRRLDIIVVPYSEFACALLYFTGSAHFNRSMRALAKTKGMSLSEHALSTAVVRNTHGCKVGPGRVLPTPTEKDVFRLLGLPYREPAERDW

[2] = target: T1, DNA polymerase lambda catalytic domain …; experiment: X-ray crystallography, 1.8 A; dUMPNPP, Na+ (metal A), Mg2+ (metal B); Crystals only: DNA with protein on ice or RT, then 0.91 mM dUMPNPP; SSB cacodylate pH 6.5/KCl/Mg acetate/PEG 8000 RT; DSB.A tripotassium citrate/PEG 3350 4 C; DSB.B Na sulfate/PEG 3350 RT; DSB.C cacodylate pH 6.5/ammonium sulfate/PEG 8K 4 C; DSB.D cacodylate pH 6.5/Ca acetate/PEG 8K 4 C, soaked in Mg acetate; settings: protein: recombinant; tags: GST tag removed by TEV; two duplexes: ACTG:CAGTGC (3' overhang 2 nt) and CGGCAGC:GCCG (3' overhang 3 nt); 2-nt microhomology, 1-nt gap
[3] = target: T2, DNA polymerase lambda catalytic domain with brooch motif (DSB.B crystals) (Homo sapiens, UniProt Q9UGP5 233-575); experiment: X-ray crystallography, 2.25 A; dUMPNPP, Mg2+ (metal B), Na+ in HhH2 site; Crystals only: DNA with protein on ice or RT, then 0.91 mM dUMPNPP; SSB cacodylate pH 6.5/KCl/Mg acetate/PEG 8000 RT; DSB.A tripotassium citrate/PEG 3350 4 C; DSB.B Na sulfate/PEG 3350 RT; DSB.C cacodylate pH 6.5/ammonium sulfate/PEG 8K 4 C; DSB.D cacodylate pH 6.5/Ca acetate/PEG 8K 4 C, soaked in Mg acetate; settings: protein: recombinant; tags: GST tag removed by TEV; single-stranded upstream primer plus duplex CGGCAGC:GCCG (3' overhang 3 nt); 2-nt microhomology; primer 5' end mispairs with same primer of neighbouring complex
T2 sequence: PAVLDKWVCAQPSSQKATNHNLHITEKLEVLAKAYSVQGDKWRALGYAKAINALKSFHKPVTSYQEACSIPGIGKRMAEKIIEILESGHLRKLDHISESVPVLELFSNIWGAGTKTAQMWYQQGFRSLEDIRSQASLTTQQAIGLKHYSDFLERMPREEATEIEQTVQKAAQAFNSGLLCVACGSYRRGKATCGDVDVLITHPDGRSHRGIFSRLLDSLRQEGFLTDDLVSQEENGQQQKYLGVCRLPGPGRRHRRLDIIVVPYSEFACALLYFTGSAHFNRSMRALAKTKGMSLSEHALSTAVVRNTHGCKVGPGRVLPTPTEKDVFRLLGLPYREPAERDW

[4] = target: T1, DNA polymerase lambda catalytic domain …; experiment: X-ray crystallography, 2 A; dUMPNPP, Mg2+; Crystals only: DNA with protein on ice or RT, then 0.91 mM dUMPNPP; SSB cacodylate pH 6.5/KCl/Mg acetate/PEG 8000 RT; DSB.A tripotassium citrate/PEG 3350 4 C; DSB.B Na sulfate/PEG 3350 RT; DSB.C cacodylate pH 6.5/ammonium sulfate/PEG 8K 4 C; DSB.D cacodylate pH 6.5/Ca acetate/PEG 8K 4 C, soaked in Mg acetate; settings: protein: recombinant; tags: GST tag removed by TEV; two duplexes: TACTG:CAGTGC (G:T mismatch at -2, 3' overhang 1 nt) and CGGCAG:GCCG (3' overhang 2 nt); 1-nt microhomology
[5] = target: T1, DNA polymerase lambda catalytic domain …; experiment: X-ray crystallography, 1.65 A; dUMPNPP, Ca2+/Mg2+ (metal A), Mg2+ (metal B); pre-catalytic; Crystals only: DNA with protein on ice or RT, then 0.91 mM dUMPNPP; SSB cacodylate pH 6.5/KCl/Mg acetate/PEG 8000 RT; DSB.A tripotassium citrate/PEG 3350 4 C; DSB.B Na sulfate/PEG 3350 RT; DSB.C cacodylate pH 6.5/ammonium sulfate/PEG 8K 4 C; DSB.D cacodylate pH 6.5/Ca acetate/PEG 8K 4 C, soaked in Mg acetate; settings: protein: recombinant; tags: GST tag removed by TEV; two duplexes: blunt GCACTG:CAGTGC and CGGCA:GCCG (3' overhang 1 nt); no microhomology

B1: 1nt-gapped SSB (dsDNA)
DNA 1: CGGCAGTACTG
DNA 2: CAGTAC
DNA 3: GCCG
modifications: 5'-phosphate on GCCG
B1: binds [1].

B2: DSB.A complementary (dsDNA)
DNA 1: ACTG
DNA 2: CAGTGC
DNA 3: CGGCAGC
DNA 4: GCCG
modifications: 5'-phosphate on GCCG
B2: binds [2].

B3: DSB.B without upstream template (mixed)
DNA: CAGTGC
? 1: CGGCAGC
? 2: GCCG
modifications: 5'-phosphate on GCCG
B3: binds [3].

B4: DSB.C mismatched (dsDNA)
DNA 1: TACTG
DNA 2: CAGTGC
DNA 3: CGGCAG
DNA 4: GCCG
modifications: 5'-phosphate on GCCG
B4: binds [4].

B5: DSB.D blunt-ended (dsDNA)
DNA 1: GCACTG
DNA 2: CAGTGC
DNA 3: CGGCA
DNA 4: GCCG
modifications: 5'-phosphate on GCCG
B5: binds [5].
